Target: HsUbcH5b(C85S)~Ub oxyester-linked conjugate (human | mammalian) (UniProt P62837)
Experiment: pull-down

## HsUbcH5b(C85S)~Ub oxyester-linked conjugate (from UniProt P62837 1-147; P0CG48 1-76) (complex)
  stoichiometry N: 4

— publication PMC3366460
